Fewer inactive variants are shown than the library holds.
B1: TPR 5TU (parent)
chain: GGAUCUUCUCGAUCUAACAAAAAAGACAAAUCUGCCACAAAGCUUGAGAGCAUCUUCGGAUGCAGAGGCGGCAGCCUUCGGUGGCGCGAUAGCGCCAACGUUCUCAACUAUGACACGCAAAACGCGUGCUCCGUUGAAUGGAGUUUAUCAUG

Variants of: B1
Test: polymerase ribozyme fitness, log enrichment relative to wild type (log ratio); higher = more active; in vitro selection for triplet polymerase activity
Method in brief: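 Each subunit of a heterodimeric triplet polymerase ribozyme was represented by a PCR-built, transcribed mutant library that underwent triplicate single-round in vitro selection with frozen incubation at −7 °C. Extended constructs were recovered by gel excision, streptavidin-bead capture and RT-PCR, and Illumina sequencing of input and output libraries kept genotypes with ≥10 input reads and ≥1 read per output. Fitness is the logarithm of genotype enrichment relative to wild-type enrichment, from inverse-variance-weighted replicate averages, with a logarithm base of 2.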

Row | Variant | polymerase ribozyme fitness (log ratio)
1 | G11A U15G G46A A47G A60G G92C C96A | ≤ -4.2
2 | G11A C38U G59C A64U G81A C93U G94C | ≤ -4.2
3 | C10U A22U C79A G83C A106U | ≤ -4.2
4 | G11U U44A G92C | ≤ -4.2
5 | G11A A26C C27G C35U C87A G124A | -4.15
6 | C10G U55G C103A | ≤ -4.2
7 | G11U G25C G71C C95G C103A C116G | ≤ -4.2
8 | G11A A40G A49C U61A G81A C125A | ≤ -4.2
9 | G11A C43G U90C G94A | -4.13
10 | G11A A29U U82G C87A G94C C96U A98G A122C G141A | ≤ -4.2
11 | G11U G86C | -3.55
12 | C10U C14U A17C U56A U134A A137U U151C | ≤ -4.2
13 | C10U A41U G70C G83U C108U U134A A142G | ≤ -4.2
14 | C10U A16G C43G U44G U77A U82A A120C | ≤ -4.2
15 | G11C G46C C57U C85U | -3.93
16 | C10U U44A U102G A119C A121G A137C G143A | ≤ -4.2
17 | C10U G50U C95U | -3.16
18 | G11U C93U A115G | -2.88
19 | C10U C35U | -3.04
20 | C10U G65A G92A | ≤ -4.2
21 | G11U A40U G42C G84C G100U A107U U134G | ≤ -4.2

Row | Variant | polymerase ribozyme fitness (log ratio)
22 | G11C A22U A30G A37C A91G C93A A98C C118G | ≤ -4.2
23 | G11A A39G C54G C87U C96G | ≤ -4.2
24 | G11A A17G C43U G94U A122G G141U | ≤ -4.2
25 | C10U G50A U55G A91G G143C | ≤ -4.2
26 | C10U C14G A28U G58C U61C G70C C76G C96U A138G G140U C149G | ≤ -4.2
27 | G11A U44A A52G C75U C76U G92C C149G | ≤ -4.2
28 | C10U C36U C63A C118U | ≤ -4.2
29 | C10G U44G U56G C57U A66C C87U A106G A142U | ≤ -4.2
30 | G11C G42A G88C U102C G126U | ≤ -4.2
31 | G11C G42U U55G C76U | ≤ -4.2
32 | G11A C35U C51U U61G C63U A64C C85G U90G G140A | ≤ -4.2
33 | C10U G59A C93U A137G | ≤ -4.2
34 | G11U G74U G81U G88C A89G C95U G128U U148A | ≤ -4.2
35 | G11A C54A | -2.47
36 | G11A C54U G83A A147U | -0.578
37 | C10G C76U | -3.93
38 | G11U C14U C72U G143A | ≤ -4.2
39 | G11U C57G A119U A121G C149U | -2.88
40 | G11A A26C G68U C75U A147C | ≤ -4.2
41 | G11U G94A A98C | -1.81
42 | G11A U31A | -0.715

Row | Variant | polymerase ribozyme fitness (log ratio)
43 | G11U C32U G84A C85A C105U C132U U139G U151G | -4.14
44 | G11U U53G C57G G59U G94A | -3.74
45 | C10U U13G C27A U33A C75G G88A A122U | ≤ -4.2
46 | G11A A28U C32U A47U C79A | ≤ -4.2
47 | C10U A19G U33A C79U C93U | ≤ -4.2
48 | C10G U53A C57U G86C A106G C108G A113G U127G | ≤ -4.2
49 | G11C C14G C87A A121C U144A | ≤ -4.2
50 | G11U A47G U53A | -2.54
51 | C10U G141A | -2.07
52 | G11U A37U C87A | -4.14
53 | C10U A21G A22G A40G C79A C85G A138U | ≤ -4.2
54 | C10G C54U G62C G86U U146C | ≤ -4.2
55 | C10U C32A C51G A106G A142C U148A | ≤ -4.2
56 | C10U A19U A23U C57U G58C C75U U78G C95U C105U | ≤ -4.2
57 | C10U C85G | -3.57
58 | C10U C85A | -3.35
59 | G11A U15G A17C A20U U33C A64G C93G A110G A147U | ≤ -4.2
60 | G11C C116G | -0.794
61 | C10U U109G A142C C149A | ≤ -4.2
62 | G11C C51U C85U G140C | ≤ -4.2
63 | G11C G74A C76U C93G A113G U145A | ≤ -4.2

Row | Variant | polymerase ribozyme fitness (log ratio)
64 | C10U G11U A29C U44G U55A G68A G71U G80A C93A A98U A138C | ≤ -4.2
65 | G11C A40C G42A G58U A60U C85G A89U C93G | ≤ -4.2
66 | G11U A17G C57U C63U G81A U82G | -1.64
67 | G11C G46C G59C G92U | -3.55
68 | C10G U55A C69G C93U C103G C116A | ≤ -4.2
69 | G11A G92U | -1.16
70 | G11U A19U C32U U33C G74A C85U G141U C149A | ≤ -4.2
71 | G11C G48A A52G C96U A113G C118U G141U A142C U151G | ≤ -4.2
72 | G11C U61A G67A G94C U145G A147U | ≤ -4.2
73 | G11A C93G | ≤ -4.2
74 | G11A C125U U139G | -2.67
75 | C10U C54A G88U A115G | ≤ -4.2
76 | G11A G34C A47G C103G A121U | ≤ -4.2
77 | G11A C43U C54U A106U C108G G112A | ≤ -4.2
78 | G11C A40C G84A A97U | -3.7
79 | C10U G42C G83U A97G G124U G133C | ≤ -4.2
80 | C10U C35A A40U U44A C51U G59U G68C C87A G143U | ≤ -4.2
81 | C10U C18U U44G A60G G92A | ≤ -4.2
82 | G11A A17C A39C | -3.25
83 | G11A C54U U55A G74A A89G G92C C105G G112A U144G | ≤ -4.2
84 | C10G U77A C93U U144G | ≤ -4.2

From the RNAGym collection of RNA variant scans (doi:10.1073/pnas.2313332121)
